What was measured:
[1] = biological target: human cellular prion protein (human); assay: cell-based or functional assay
[2] = biological target: GST-PrPc (β1α1) protein (human); assay: Biacore (SPR), ratio of affinities
[3] = biological target: GST-PrPc (β1α1) protein (human); assay: Biacore (SPR), soluble GST-PrPc (β1α1) at several concentrations

B1: anti-PrPc mAb-5 (monoclonal antibody Ab-5) (antibody, V domains shown)
VH: EVQLQQSGPELVKPGASVKMSCKASGYTFTDYYMKWVKQSHGKSLEWIGDINPNNGDTFYNQKFKGKATLTVDKSSNTAYMQLNSLTSEDSAVYYCAKPGRTYWGQGTLVTVSAAKTTAPSVYPLAPVCGGSRP
VL: DIVLTQSPASLAVSLGQRATISYRASKSVSTSGYSYMHWNQQKPGQPPRLLIYLVSNLESGVPARFSGSGSGTDFTLNIHPVEEEDAATYYCQHIRELTRSEGGPSWK
Migrated cell number, HCT116 cells (transwell, antibody 10 µg/mL, 24 h) [1]: 192 cells | Migrated cell number, MDA-MB-231 cells (transwell, antibody 10 µg/mL, 24 h) [1]: 695 cells | Migrated cell number, SW480 cells (transwell, antibody 10 µg/mL, 24 h) [1]: 111 cells | fold affinity against 12F10 [2]: 5.38 times | fold affinity against Ab-3 [2]: 1.87 times | Kd [3]: 3.05 nM

Source: patent US20170066817A1
